Test results as given in patent publication US10487307B2, “Culture method for pluripotent stem cells” (FUJIFILM CORPORATION, priority 2013, dated 2019).

Key:
[1] = Aggregation after dialysis of purified polypeptide solution; format: physicochemical; design: key: G: The formation of an aggregate was not observed.; A: The formation of particles having a particle size of about 100 nm was observed.; B: The formation of an aggregation of particles having a particle size of equal to or greater than 1 mm was visually observed
Method: For RCP-1 to RCP-11, each of the purified polypeptide solutions was dialyzed using Slide-A-Lizer (3.5 K MWCO.). Basically, by using a dialysis buffer (PBS, 1.5 M NaCl, 0.5 M L-arginine, 1 mM EDTA, pH 7.4) as an outer dialysate, urea was removed by stepwise dialysis. The concentration of the end-product of dialysis was calculated from the absorbence at 280 nm by using NanoDrop (Thermo Fisher Scientific Inc.).
Whether or not aggregation was occurred was evaluated based on the scale of A, and B as shown below.
G: The formation of an aggregate was not observed.
A: The formation of particles having a particle size of about 100 nm was observed.
B: The formation of an aggregation of particles having a particle size of equal to or greater than 1 mm was visually observed.

human iPS cells ("Tic") = experiment: Cell adhesiveness evaluation 1 (ALP activity of adhesive iPS cells); format: cell-based; settings: 30,000 cells/well, 24 hours, natural vitronectin (sample 15) = 100%, n=3
Summary of the method: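 Peptides and controls were adsorbed onto wells for 2 h at 37 °C. Single-cell human iPS cells in TeSR2 with 10 μM Y-27362 were seeded at 30,000 cells/well. After 24 h, non-adherent cells were washed off and adherent cells fixed; cell number came from ALP activity via a calibration curve. Adhesion is expressed relative to natural vitronectin (100%), n=3.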

iPS cells = experiment: Growth evaluation, number of cells after 3 days; format: cell-based, human; settings: 5,000 cells/well
Method: By adding RCP-1 to RCP-11 and Human Recombinant Laminin-511 as control at the concentration shown in Table 9, samples 1 to 12 were prepared. The samples were seeded into a 96-well plate, onto which each of the polypeptides was adsorbed in the same manner as in <Cell adhesiveness evaluation 1>, at a ratio of 5,000 cells/well and cultured for 3 days in a CO2 incubator at 37° C. The number of cells after 3 days was calculated in the same manner as in <Cell adhesiveness evaluation 1>. In Table 9, the number of cells after 3 days is expressed as a ratio calculated by regarding the number of cells obtained by using the sample 1 as being 100%.

Molecule	Aggregation [1]	Cell adhesion rate (%) (human iPS cells ("Tic"); added amount 200 pmol/cm^2)	Number of cells after 3 days (%) (iPS cells; added amount 80 μg/cm^2, sample 1 = 100%)	Cell adhesion rate (%) (human iPS cells ("Tic"); added amount 10 μg/cm^2)	Number of cells after 3 days (%) (iPS cells; added amount 10 μg/cm^2, sample 1 (RCP-1) = 100%)	Cell adhesion rate (%) (human iPS cells ("Tic"); added amount 5 μg/cm^2)	Number of cells after 3 days (%) (iPS cells; added amount 5 μg/cm^2, sample 1 (RCP-1) = 100%)
RCP-1: recombinant polypeptide for culture, SEQ ID NO: 15; human vitronectin positions 1-55 and 269-459 with N-terminal methionine (protein, Vitronectin-derived Recombinant Protein (RCP-1)) MDQESCKGRCTEGFNVDKKCQCDELCSYYQSCCTDYTAECKPQVTRGDVFTMPEDEPSQEECEGSSLSAVFEHFAMMQRDSWEDIFELLFWGRTSAGTRQPQFISRDWHGVPGQVDAAMAGRIYISGMAPRPSLAKKQRFRHRNRKGYRSQRGHSRGRNQNSRRPSRATWLSLFSSEESNLGANNYDDYRMDWLVPATCEPIQSVFFFSGDKYYRVNLRTRRVDTVDPPYPRSIAQYWLGCPAPGHL	A	109.3 ± 5.3%	100.0%				
RCP-5: recombinant polypeptide for culture, SEQ ID NO: 19; vitronectin positions 1-55, 302-341, 342-373 (protein, Vitronectin-derived Recombinant Protein (RCP-5)) MDQESCKGRCTEGFNVDKKCQCDELCSYYQSCCTDYTAECKPQVTRGDVFTMPEDEFWGRTSAGTRQPQFISRDWHGVPGQVDAAMAGRIYISGMAPRPSLAKKQRFRHRNRKGYRSQRGHSRGRNQN	G			94.1 ± 6.5%	121.2%		
RCP-11: recombinant polypeptide for culture, SEQ ID NO: 25; vitronectin positions 1-55, 269-277, 295-341, 342-373, C274S (protein, Vitronectin-derived Recombinant Protein (RCP-11), vitronectin positions 1-55, 269-277, 295-341, 342-373, C274S) MDQESCKGRCTEGFNVDKKCQCDELCSYYQSCCTDYTAECKPQVTRGDVFTMPEDESQEESEGSEDIFELLFWGRTSAGTRQPQFISRDWHGVPGQVDAAMAGRIYISGMAPRPSLAKKQRFRHRNRKGYRSQRGHSRGRNQN	A					95.9 ± 4.6%	153.5%
